Results taken from US20200148732A1 (UNIVERSITY OF COPENHAGEN, published 2020).
Positions count from the first letter of the chain named.

Columns and labels:
[1] = biological target: T1, GFP-TONSL D604A (Homo sapiens, UniProt Q96HA7 1-1378); test: GFP immunoprecipitation of GFP-TONSL from transfected HeLa S3 cells, western blot (co-IP; association may be indirect)
T1 construct: also called TONSL D604A / GFP; not shown: N-terminal GFP tag
T1 sequence: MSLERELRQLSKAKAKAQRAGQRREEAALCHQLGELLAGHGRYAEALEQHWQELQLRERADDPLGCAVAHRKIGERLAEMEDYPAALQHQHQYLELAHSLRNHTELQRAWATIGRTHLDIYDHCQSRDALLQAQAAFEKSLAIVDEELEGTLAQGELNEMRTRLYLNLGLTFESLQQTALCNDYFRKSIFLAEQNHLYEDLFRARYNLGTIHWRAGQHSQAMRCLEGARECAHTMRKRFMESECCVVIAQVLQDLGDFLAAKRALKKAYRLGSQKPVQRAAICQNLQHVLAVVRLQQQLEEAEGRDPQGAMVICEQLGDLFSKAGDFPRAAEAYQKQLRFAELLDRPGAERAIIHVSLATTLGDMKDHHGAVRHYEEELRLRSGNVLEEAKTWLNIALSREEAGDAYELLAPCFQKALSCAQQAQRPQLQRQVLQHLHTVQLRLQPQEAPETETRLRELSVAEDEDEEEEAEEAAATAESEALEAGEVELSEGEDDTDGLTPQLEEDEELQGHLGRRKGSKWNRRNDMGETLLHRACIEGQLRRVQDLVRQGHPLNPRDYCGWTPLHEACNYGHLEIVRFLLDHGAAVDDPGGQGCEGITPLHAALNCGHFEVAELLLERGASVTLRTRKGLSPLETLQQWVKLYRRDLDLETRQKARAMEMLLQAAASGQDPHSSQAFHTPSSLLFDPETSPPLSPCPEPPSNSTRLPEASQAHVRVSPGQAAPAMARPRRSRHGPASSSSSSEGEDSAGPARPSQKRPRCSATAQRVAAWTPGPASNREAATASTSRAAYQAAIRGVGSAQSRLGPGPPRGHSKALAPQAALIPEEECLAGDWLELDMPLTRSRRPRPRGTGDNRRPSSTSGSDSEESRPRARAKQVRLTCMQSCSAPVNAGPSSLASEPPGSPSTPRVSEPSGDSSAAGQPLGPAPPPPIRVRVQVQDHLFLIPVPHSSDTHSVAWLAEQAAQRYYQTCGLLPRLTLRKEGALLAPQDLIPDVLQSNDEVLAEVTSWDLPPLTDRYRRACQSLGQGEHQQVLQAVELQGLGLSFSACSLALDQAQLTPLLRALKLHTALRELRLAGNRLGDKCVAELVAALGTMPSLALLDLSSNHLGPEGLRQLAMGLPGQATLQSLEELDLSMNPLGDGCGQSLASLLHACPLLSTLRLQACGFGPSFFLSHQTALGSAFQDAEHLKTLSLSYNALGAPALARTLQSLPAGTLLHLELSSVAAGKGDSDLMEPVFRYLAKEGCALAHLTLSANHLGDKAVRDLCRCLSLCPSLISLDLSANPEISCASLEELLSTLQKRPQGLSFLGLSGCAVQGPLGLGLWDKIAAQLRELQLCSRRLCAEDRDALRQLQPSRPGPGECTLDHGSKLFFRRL

[2] = biological target: T2, GFP-TONSL E530A (Homo sapiens, UniProt Q96HA7 1-1378); test: as above
T2 construct: also called TONSL E530A / GFP; not shown: N-terminal GFP tag
T2 sequence: T1 sequence with E530A, A604D

binding result [1]: binds
binding result [2]: binds
B1: MMS22L (endogenous, in cell extracts) (other, UniProt Q6ZRQ5 1-1243, looked up)
chain: MENCSAASTFLTDSLELELGTEWCKPPYFSCAVDNRGGGKHFSGESYLCSGALKRLILNLDPLPTNFEEDTLEIFGIQWVTETALVNSSRELFHLFRQQLYNLETLLQSSCDFGKVSTLHCKADNIRQQCVLFLHYVKVFIFRYLKVQNAESHVPVHPYEALEAQLPSVLIDELHGLLLYIGHLSELPSVNIGAFVNQNQIKLFPPSWHLLHLHLDIHWLVLEILYMLGEKLKQVVYGHQFMNLASDNLTNISLFEEHCETLLCDLISLSLNRYDKVRSSESLMSDQCPCLCIKELWVLLIHLLDHRSKWFVSESFWNWLNKLLKTLLEKSSDRRRSSMPVIQSRDPLGFSWWIITHVASFYKFDRHGVPDEMRKVESNWNFVEELLKKSISVQGVILEEQLRMYLHCCLTLCDFWEPNIAIVTILWEYYSKNLNSSFSISWLPFKGLANTMKSPLSMLEMVKTCCCDKQDQELYKSSSSYTIFLCILAKVVKKAMKSNGPHPWKQVKGRIYSKFHQKRMEELTEVGLQNFFSLFLLLAAVAEVEDVASHVLDLLNFLKPAFVTSQRALIWKGHMAFLLMYAQKNLDIGVLAEKFSCAFREKAKEFLVSKNEEMVQRQTIWTLLSIYIDGVQEVFETSYCLYPSHEKLLNDGFSMLLRACRESELRTVLSFLQAVLARIRSMHQQLCQELQRDNVDLFVQSSLSAKERHLAAVASALWRHFFSFLKSQRMSQVVPFSQLADAAADFTLLAMDMPSTAPSDFQPQPVISIIQLFGWDDIICPQVVARYLSHVLQNSTLCEALSHSGYVSFQALTVRSWIRCVLQMYIKNLSGPDDLLIDKNLEEAVEKEYMKQLVKLTRLLFNLSEVKSIFSKAQVEYLSISEDPKKALVRFFEAVGVTYGNVQTLSDKSAMVTKSLEYLGEVLKYIKPYLGKKVFSAGLQLTYGMMGILVKSWAQIFATSKAQKLLFRIIDCLLLPHAVLQQEKELPAPMLSAIQKSLPLYLQGMCIVCCQSQNPNAYLNQLLGNVIEQYIGRFLPASPYVSDLGQHPVLLALRNTATIPPISSLKKCIVQVIRKSYLEYKGSSPPPRLASILAFILQLFKETNTDIYEVELLLPGILKCLVLVSEPQVKRLATENLQYMVKACQVGSEEEPSSQLTSVFRQFIQDYGMRYYYQVYSILETVATLDQQVVIHLISTLTQSLKDSEQKWGLGRNIAQREAYSKLLSHLGQMGQDEMQRLENDNT
